Results on 16 substances are retold here after patent US20190263934A1.

Bounds are passed on as bounds.

For experiment [1], the target named is biotinylated human FcRn (hFcRn; p51 subunit residues 24-297 with C-terminal Avi-tag, β2-m residues 21-119) (human) (UniProt P55899). The experiment can be described thus: Biacore SPR, pH 6.0, apparent affinity. (Surface plasmon resonance follows binding to a sensor surface in real time, without labels.)
The target is the same in experiment [2]. The experiment can be described thus: Biacore SPR, pH 7.4, steady state, 1000 nM antibody.
The target is the same in experiment [3]. The experiment can be described thus: Biacore SPR, Biotin CAPture, pH 7.4, 1000 nM antibody, steady state.
The target in experiment [4] is biotinylated hFcRn (human) (UniProt P55899). Description: SPR Biacore, pH 6.0.
Target sequence in this assay (P55899 24-297 limits assumed, form in doubt, chain 1 of 2): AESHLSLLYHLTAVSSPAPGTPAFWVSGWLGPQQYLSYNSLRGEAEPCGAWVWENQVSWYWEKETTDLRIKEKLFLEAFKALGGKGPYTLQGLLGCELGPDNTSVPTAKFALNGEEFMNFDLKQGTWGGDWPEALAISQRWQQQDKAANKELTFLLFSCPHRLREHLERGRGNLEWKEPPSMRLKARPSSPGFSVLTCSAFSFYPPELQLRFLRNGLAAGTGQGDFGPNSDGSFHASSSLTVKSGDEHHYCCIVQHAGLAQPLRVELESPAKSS
Target sequence in this assay (P61769 21-119 limits assumed, form in doubt, chain 2 of 2, further chain): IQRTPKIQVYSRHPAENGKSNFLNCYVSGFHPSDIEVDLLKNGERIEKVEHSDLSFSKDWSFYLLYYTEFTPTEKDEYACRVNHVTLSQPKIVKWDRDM
The target in experiment [5] is rFcRn (rat) (UniProt P13599). Description: SPR Biacore, pH 6.0.
Target sequence in this assay (P13599 23-298 limits assumed, form in doubt, chain 1 of 2): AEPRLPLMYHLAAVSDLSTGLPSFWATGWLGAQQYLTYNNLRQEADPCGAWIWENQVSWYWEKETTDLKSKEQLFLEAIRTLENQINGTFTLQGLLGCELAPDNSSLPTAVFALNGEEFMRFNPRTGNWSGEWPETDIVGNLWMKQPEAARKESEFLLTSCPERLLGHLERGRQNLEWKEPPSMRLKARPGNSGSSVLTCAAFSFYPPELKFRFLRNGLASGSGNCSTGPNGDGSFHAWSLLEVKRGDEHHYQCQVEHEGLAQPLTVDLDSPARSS
Target sequence in this assay (P07151 21-119 limits assumed, form in doubt, chain 2 of 2, further chain): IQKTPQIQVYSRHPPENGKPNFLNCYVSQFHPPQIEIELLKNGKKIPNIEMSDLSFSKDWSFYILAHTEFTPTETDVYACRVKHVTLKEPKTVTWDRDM
Experiment [6] concerns the target biotinylated hFcRn (human) (UniProt P55899). Description: SPR Biacore, pH 7.4.
Target sequence in this assay (P55899 24-297 limits assumed, form in doubt, chain 1 of 2): as the sequence (P55899 24-297 limits assumed, form in doubt, chain 1 of 2) above
Target sequence in this assay (P61769 21-119 limits assumed, form in doubt, chain 2 of 2, further chain): as the sequence (P61769 21-119 limits assumed, form in doubt, chain 2 of 2, further chain) above
Experiment [7] concerns the target rFcRn (rat) (UniProt P13599). Description: SPR Biacore, pH 7.4.
Target sequence in this assay (P13599 23-298 limits assumed, form in doubt, chain 1 of 2): as the sequence (P13599 23-298 limits assumed, form in doubt, chain 1 of 2) above
Target sequence in this assay (P07151 21-119 limits assumed, form in doubt, chain 2 of 2, further chain): as the sequence (P07151 21-119 limits assumed, form in doubt, chain 2 of 2, further chain) above
For experiment [8], the target named is biotinylated hFcRn (human) (UniProt P55899). Description: SPR Biacore, pH 6.0. This is another data set of the same source.
Target sequence in this assay (P55899 24-297 limits assumed, form in doubt, chain 1 of 2): as the sequence (P55899 24-297 limits assumed, form in doubt, chain 1 of 2) above
Target sequence in this assay (P61769 21-119 limits assumed, form in doubt, chain 2 of 2, further chain): as the sequence (P61769 21-119 limits assumed, form in doubt, chain 2 of 2, further chain) above
Experiment [9] shares this target. The experiment can be described thus: Biacore SPR, pH 6.0, bivalent fit.
Target sequence in this assay (P55899 24-297, form in doubt, chain 1 of 2): as the sequence (P55899 24-297 limits assumed, form in doubt, chain 1 of 2) above
Target sequence in this assay (P61769 21-119, form in doubt, chain 2 of 2, further chain): as the sequence (P61769 21-119 limits assumed, form in doubt, chain 2 of 2, further chain) above
The target in experiment [10] is rFcRn (rat) (UniProt P13599). Description: Biacore SPR, pH 6.0, bivalent fit.
Target sequence in this assay (P13599 23-298, form in doubt, chain 1 of 2): as the sequence (P13599 23-298 limits assumed, form in doubt, chain 1 of 2) above
Target sequence in this assay (P07151 21-119, form in doubt, chain 2 of 2, further chain): as the sequence (P07151 21-119 limits assumed, form in doubt, chain 2 of 2, further chain) above
Experiment [11] addresses rFcRn (rat) (UniProt P13599). Description: SPR Biacore, pH 7.4, 1000 nM antibody.
Target sequence in this assay (P13599 23-298 limits assumed, form in doubt, chain 1 of 2): as the sequence (P13599 23-298 limits assumed, form in doubt, chain 1 of 2) above
Target sequence in this assay (P07151 21-119 limits assumed, form in doubt, chain 2 of 2, further chain): as the sequence (P07151 21-119 limits assumed, form in doubt, chain 2 of 2, further chain) above
In experiment [12] the target is biotinylated hFcRn (human) (UniProt P55899). The experiment can be described thus: SPR Biacore, pH 7.4, 1000 nM antibody.
Target sequence in this assay (P55899 24-297 limits assumed, form in doubt, chain 1 of 2): as the sequence (P55899 24-297 limits assumed, form in doubt, chain 1 of 2) above
Target sequence in this assay (P61769 21-119 limits assumed, form in doubt, chain 2 of 2, further chain): as the sequence (P61769 21-119 limits assumed, form in doubt, chain 2 of 2, further chain) above
Experiment [13] shares this target. The experiment can be described thus: Biacore SPR, pH 7.4, single antibody concentration, steady state.
Target sequence in this assay (P55899 24-297, form in doubt, chain 1 of 2): as the sequence (P55899 24-297 limits assumed, form in doubt, chain 1 of 2) above
Target sequence in this assay (P61769 21-119, form in doubt, chain 2 of 2, further chain): as the sequence (P61769 21-119 limits assumed, form in doubt, chain 2 of 2, further chain) above
The target in experiment [14] is rFcRn (rat) (UniProt P13599). The experiment is described as above.
Target sequence in this assay (P13599 23-298, form in doubt, chain 1 of 2): as the sequence (P13599 23-298 limits assumed, form in doubt, chain 1 of 2) above
Target sequence in this assay (P07151 21-119, form in doubt, chain 2 of 2, further chain): as the sequence (P07151 21-119 limits assumed, form in doubt, chain 2 of 2, further chain) above
The target of experiment [15] is Human CD16a (FcγRIIIa) V158 with C-terminal HPC4 tag (human) (UniProt P08637). The experiment can be described thus: Biacore SPR, captured HPC4-tagged FcγRIIIa-V158, steady-state fit.
Human CD16a (FcγRIIIa) V158 with C-terminal HPC4 tag (human), sequence (P08637 17-208 F176V): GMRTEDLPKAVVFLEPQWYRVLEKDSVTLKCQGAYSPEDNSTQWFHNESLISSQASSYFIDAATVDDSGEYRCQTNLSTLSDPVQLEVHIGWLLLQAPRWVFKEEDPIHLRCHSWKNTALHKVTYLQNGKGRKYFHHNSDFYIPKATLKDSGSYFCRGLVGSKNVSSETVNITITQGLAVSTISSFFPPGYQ

One may read the koff as the first-order rate constant of dissociation. As a reminder, the kon is the second-order rate constant of association. Read a low kon as slow association.

biotinylated human FcRn (hFcRn; p51 subunit residues 24-297 with C-terminal Avi-tag, β2-m residues 21-119) (human), sequence (P55899 24-297, form in doubt, chain 1 of 2): as the sequence (P55899 24-297 limits assumed, form in doubt, chain 1 of 2) above
biotinylated human FcRn (hFcRn; p51 subunit residues 24-297 with C-terminal Avi-tag, β2-m residues 21-119) (human), sequence (P61769 21-119, form in doubt, chain 2 of 2, further chain): as the sequence (P61769 21-119 limits assumed, form in doubt, chain 2 of 2, further chain) above

For the substance “mAb1 YDWF variant (M252Y/T256D/T307W/N434F) (antibody)”, the Ka in experiment [1] was determined as 1.66e+08 M⁻¹. In [2], this substance registered a Steady State Binding, pH 7.4 (RU) of 71.8 RU. The pH 7.4 RU in experiment [3] came out at 75.7 RU.

Take mAb1 T307W/N434F (antibody): the figures for the Kd in experiment [4] and in [5] were 38.2 nM and 2.7 nM, respectively. The koff in experiment [5] worked out at 0.00057 s⁻¹. In addition, the Steady State RU in experiment [6] amounted to 30.5 RU; in experiment [7], 65.1 RU.

In the case of mAb1 T307W (antibody), the Kd is 8740 nM in experiment [4]; 111 nM in experiment [5]; more than 3000 nM in [8]; 8740 nM in [9]; 111 nM in experiment [10]. For the same substance, the results for the Steady State RU in experiment [7] and in [11] were 21.9 RU and 19.2 RU, respectively.

For mAb1 N434P (antibody), the Kd in experiment [5] and in experiment [10] was 194 nM each time. In addition, the results for the Steady State RU in [12] and in experiment [11] were 3.5 RU and 4.3 RU, respectively.

Consider “mAb1 YTWY variant (M252Y/T307W/N434Y) (antibody)”, for which the Ka in experiment [1] amounted to 1.06e+08 M⁻¹. Besides, the Steady State Binding, pH 7.4 (RU) in experiment [2] turned out to be 75.1 RU. In addition, the pH 7.4 RU in experiment [3] was found to be 77.1 RU.

In the case of mAb1 YDTN (M252Y/T256D) (antibody), the Kd in experiment [10] was found to be 5.9 nM; in experiment [15], 1060 nM. Moreover, the Steady State RU (pH 7.4) in experiment [13] is 9.7 RU; in [14], 56 RU.

On to mAb1 YTWN (M252Y/T307W) (antibody), for which the Kd turned out to be 118 nM in experiment [9], 5.2 nM in experiment [10] and 896 nM in [15]. For the same substance, the results for the kon in experiment [9] and in experiment [10] were 48000 M⁻¹ s⁻¹ and 21000 M⁻¹ s⁻¹, respectively. The koff in experiment [10] came out at 0.0011 s⁻¹. Moreover, the Steady State RU (pH 7.4) in experiment [13] amounted to 15.9 RU; in experiment [14] it was 66.1 RU.

Regarding mAb1 T307A (antibody), the Kd in experiment [5] and in experiment [10] was 132 nM throughout. For the same substance, the Steady State RU in experiment [12] is 5.2 RU; in [11] it was 23.1 RU.

For the substance mAb1 Y436W (antibody), the Kd in experiment [5] and in experiment [10] was 1140 nM in each case. The results for the Steady State RU in experiment [12] and in [11] were 3.7 RU and 10.3 RU, respectively.

mAb1 M252Y (antibody): the Kd is 3100 nM in experiment [4]; 25 nM in experiment [5]; more than 3000 nM in experiment [8]; 3100 nM in experiment [9]; 25 nM in experiment [10]. In addition, the Steady State RU in experiment [7] came to 50.5 RU; in [11], 57.7 RU.

For the substance “mAb1 YDQN (M252Y/T256D/T307Q) (antibody)”, the Kd came out at 115 nM in experiment [9], 5.1 nM in [10] and 1060 nM in experiment [15]. Further, the dissociation rate constant (koff) in experiment [9] is 0.28 s⁻¹; in [10] it was 0.0003 s⁻¹. For the same substance, the kon is 25000 M⁻¹ s⁻¹ in experiment [9] and 5000 M⁻¹ s⁻¹ in [10]. In addition, the Steady State RU (pH 7.4) in [13] was determined as 19.8 RU; in experiment [14] it was 65.2 RU.

As for mAb1 Y436N (antibody), the Kd in [5] and in experiment [10] was 233 nM throughout. Besides, the Steady State RU in [12] is 3.6 RU; in experiment [11] it was 17.4 RU.

As to mAb1 T307Q (antibody), the Kd in experiment [4] was 5720 nM; in experiment [5], 58 nM; in experiment [8] it was more than 3000 nM; in [9], 5720 nM; in experiment [10], 58 nM. In addition, the Steady State RU in experiment [6] stood at 6.6 RU; in [7], 31.3 RU; in [12] it was 6.4 RU; in experiment [11] it was 24.3 RU.

In [4], mAb1 T256D/N434F (antibody) showed a Kd of 29.9 nM, a koff of 0.029 s⁻¹ and a kon of 968000 M⁻¹ s⁻¹. In experiment [5], the Kd came out at 1.78 nM, the koff is 0.00039 s⁻¹ and the kon stood at 218000 M⁻¹ s⁻¹. The substance further displayed a Steady State RU in [6] of 29.2 RU. Also, the Steady State RU in [7] is 63 RU.

As for “mAb1 YDTY variant (M252Y/T256D/N434Y) (antibody)”, the Ka in experiment [1] was 9.01e+07 M⁻¹. In [2], this substance had a Steady State Binding, pH 7.4 (RU) of 65.4 RU. Moreover, the pH 7.4 RU in experiment [3] was found to be 69.7 RU.

As to mAb1 T307M (antibody), the Kd in experiment [5] and in experiment [10] was 279 nM each time. Moreover, the Steady State RU in [12] was 4.4 RU; in experiment [11], 15.3 RU.
